Data published in patent publication US20210308260A1.

Target: OVA-specific T-cell antigen receptor of OT1 transgenic mice (mouse)
Experiment: flow cytometry, OVA tetramer staining of peripheral blood CD8+ T cells of OT1 mice

Question: For OVA tetramer (peptide-MHC), which proportion of CD8+ T cells specifically recognized by OVA (tetramer-positive) is on record?
Answer: 95.3%
